Reference: patent US9127040B2, “Regulation of sodium channels by PLUNC proteins” (The University of North Carolina at Chapel Hill, priority 2011, dated 2015)

Target: T1, αENaC (Rattus norvegicus, UniProt P37089+P37090)
T1 construct: expressed in transfected cells; host or cells: Xenopus oocytes
T1 sequence (P37089 1-698): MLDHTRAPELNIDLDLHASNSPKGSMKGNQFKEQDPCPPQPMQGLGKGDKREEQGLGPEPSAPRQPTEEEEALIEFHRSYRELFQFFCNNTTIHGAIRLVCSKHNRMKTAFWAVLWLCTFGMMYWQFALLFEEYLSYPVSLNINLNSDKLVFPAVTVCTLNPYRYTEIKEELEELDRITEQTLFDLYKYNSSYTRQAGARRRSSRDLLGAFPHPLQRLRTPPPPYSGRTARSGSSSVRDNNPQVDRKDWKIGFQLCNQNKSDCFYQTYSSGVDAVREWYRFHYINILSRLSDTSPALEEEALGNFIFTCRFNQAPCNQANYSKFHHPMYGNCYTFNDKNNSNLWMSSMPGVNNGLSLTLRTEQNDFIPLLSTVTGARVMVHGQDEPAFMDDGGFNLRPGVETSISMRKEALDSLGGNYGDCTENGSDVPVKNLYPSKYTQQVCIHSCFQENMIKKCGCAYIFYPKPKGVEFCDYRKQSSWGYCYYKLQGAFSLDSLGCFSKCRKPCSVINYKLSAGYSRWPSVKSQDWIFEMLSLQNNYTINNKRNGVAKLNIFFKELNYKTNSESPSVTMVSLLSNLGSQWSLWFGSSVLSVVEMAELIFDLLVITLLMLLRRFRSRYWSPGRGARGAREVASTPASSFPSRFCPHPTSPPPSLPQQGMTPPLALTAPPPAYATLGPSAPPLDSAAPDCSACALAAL
T1 sequence (P37090 1-638): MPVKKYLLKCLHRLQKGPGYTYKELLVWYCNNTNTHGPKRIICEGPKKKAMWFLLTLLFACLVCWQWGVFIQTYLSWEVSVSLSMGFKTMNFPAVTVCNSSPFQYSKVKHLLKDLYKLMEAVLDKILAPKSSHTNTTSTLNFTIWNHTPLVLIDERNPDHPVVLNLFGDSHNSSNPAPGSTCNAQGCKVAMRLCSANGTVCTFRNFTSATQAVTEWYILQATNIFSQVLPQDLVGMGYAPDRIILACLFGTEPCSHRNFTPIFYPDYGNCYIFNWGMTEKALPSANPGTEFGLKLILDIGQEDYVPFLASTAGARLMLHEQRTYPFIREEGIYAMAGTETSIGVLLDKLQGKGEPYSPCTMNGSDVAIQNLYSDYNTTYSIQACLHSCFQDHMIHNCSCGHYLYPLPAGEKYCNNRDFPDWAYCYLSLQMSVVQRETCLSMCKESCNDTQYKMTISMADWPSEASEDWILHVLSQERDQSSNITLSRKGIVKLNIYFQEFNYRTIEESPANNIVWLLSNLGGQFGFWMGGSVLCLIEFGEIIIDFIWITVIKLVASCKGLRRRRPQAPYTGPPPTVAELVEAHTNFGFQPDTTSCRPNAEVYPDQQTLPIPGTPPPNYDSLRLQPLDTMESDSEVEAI
T1 sequence (P37091 1-650 partner): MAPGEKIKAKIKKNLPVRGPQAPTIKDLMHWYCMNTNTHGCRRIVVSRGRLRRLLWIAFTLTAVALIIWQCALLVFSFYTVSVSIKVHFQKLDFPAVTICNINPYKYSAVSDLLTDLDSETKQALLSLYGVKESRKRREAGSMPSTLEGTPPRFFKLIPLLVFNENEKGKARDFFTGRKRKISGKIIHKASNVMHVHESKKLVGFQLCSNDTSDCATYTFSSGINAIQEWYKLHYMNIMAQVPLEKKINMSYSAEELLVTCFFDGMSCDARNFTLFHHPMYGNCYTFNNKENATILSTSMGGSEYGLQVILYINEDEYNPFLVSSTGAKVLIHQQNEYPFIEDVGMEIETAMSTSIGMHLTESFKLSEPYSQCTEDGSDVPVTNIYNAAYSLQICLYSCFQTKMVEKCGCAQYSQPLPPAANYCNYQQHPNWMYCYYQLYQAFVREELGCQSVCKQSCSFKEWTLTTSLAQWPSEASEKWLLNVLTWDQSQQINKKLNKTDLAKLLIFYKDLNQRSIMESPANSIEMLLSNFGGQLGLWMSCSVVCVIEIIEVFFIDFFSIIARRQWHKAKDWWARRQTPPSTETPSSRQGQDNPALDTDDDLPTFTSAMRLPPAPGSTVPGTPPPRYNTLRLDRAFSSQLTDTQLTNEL
Assay: Surface biotinylation of αENaC in Xenopus oocytes
Assay type: cell-based
Details: coexpression with SPLUNC1
Method: The effect of SPLUNC1 on the number of ENaC channels in the plasma membrane was tested by expressing SPLUNC1 and αENaC in Xenopus oocytes. After surface biotinylation of αENaC, total lysate was prepared and lysate from 3-4 eggs was separated on a 10% gel.

B1: SPLUNC1: human SPLUNC1 (SEQ ID NO:1), 256 amino acid secreted PLUNC family protein; rSPLUNC1 is the purified V5/6His-tagged recombinant form (protein, listed as Homo sapiens)
chain: MFQTGGLIVFYGLLAQTMAQFGGLPVPLDQTLPLNVNPALPLSPTGLAGSLTNALSNGLLSGGLLGILENLPLLDILKPGGGTSGGLLGGLLGKVTSVIPGLNNIIDIKVTDPQLLELGLVQSPDGHRLYVTIPLGIKLQVNTPLVGASLLRLAVKLDITAEILAVRDKQERIHLVLGDCTHSPGSLQISLLDGLGPLPIQGLLDSLTGILNKVLPELVQGNVCPLVNEVLRGLDITLVHDIVNMLIHGLQFVIKV
modifications: V5/6His tag in recombinant form
notes: rSPLUNC1 is the purified V5/6His-tagged recombinant form
- plasma membrane ENaC (surface biotinylation): decreased
